Where no end group is shown, it is not given here. [ ]: non-standard residue; d: D form. pS = N[C@@H](COP(=O)(O)O)C(=O)O
T1: MLL-pM-A8 peptide on HLA-B*07:02 (human)
T1 peptide: EPR[pS]PSHAM

T2: MLL-pM-A3 peptide on HLA-B*07:02 (human)
T2 peptide: EPA[pS]PSHSM

T3: MLL-pM-A2 peptide on HLA-B*07:02 (human)
T3 peptide: EAR[pS]PSHSM

T4: MLL-pM-A5 peptide on HLA-B*07:02 (human)
T4 peptide: EPR[pS]ASHSM

T5: MLL-pM-A6 peptide on HLA-B*07:02 (human)
T5 peptide: EPR[pS]PAHSM

T6: MLL-pM-A7 peptide on HLA-B*07:02 (human)
T6 peptide: EPR[pS]PSASM

T7: MLL-pM-A9 peptide on HLA-B*07:02 (human)
T7 peptide: EPR[pS]PSHSA

T8: MLL-pM-A4 peptide on HLA-B*07:02 (human)
T8 peptide: EPRAPSHSM

T9: MLL-pM-A1 peptide on HLA-B*07:02 (human)
T9 peptide: APR[pS]PSHSM

T10: MLL (KMT2A), MLL-pP peptide on HLA-B*07:02 (human)
T10 peptide: RVR[pS]PTRSP

B1: TCR0085 (TCR, V domains shown)
Valpha: KQEVTQIPAALSVPEGENLVLNCSFTDSAIYNLQWFRQDPGKGLTSLLLIQSSQREQTSGRLNASLDKSSGRSTLYIAASQPGDSATYLCAVMLWNQGGKLIFGQGTELSVKP
Vbeta: KAGVTQTPRYLIKTRGQQVTLSCSPISGHRSVSWYQQTPGQGLQFLFEYFSETQRNKGNFPGRFSGRQFSNSRSEMNVSTLELGDSALYLCASSLGRGYEQYFGPGTRLTVT
B2: TCR0077 (TCR, V domains shown)
Valpha: TQLLEQSPQFLSIQEGENLTVYCNSSSVFSSLQWYRQEPGEGPVLLVTVVTGGEVKKLKRLTFQFGDARKDSSLHITAAQPGDTGLYLCAGYGGGSNYKLTFGAGTRLTVKP
Vbeta: EAQVTQNPRYLITVTGKKLTVTCSQNMNHEYMSWYRQDPGLGLRQIYYSMNVEVTDKGDVPEGYKVSRKEKRNFPLILESPSPNQTSLYFCASRLTGRVHGYTFGPGTRLTVL

Assays:
[1] = target: T1, MLL-pM-A8 peptide on HLA-B*07:02; assay: activation reporter or marker
[2] = target: T2, MLL-pM-A3 peptide on HLA-B*07:02; assay: activation reporter or marker
[3] = target: T3, MLL-pM-A2 peptide on HLA-B*07:02; assay: activation reporter or marker
[4] = target: T4, MLL-pM-A5 peptide on HLA-B*07:02; assay: activation reporter or marker
[5] = target: T5, MLL-pM-A6 peptide on HLA-B*07:02; assay: activation reporter or marker
[6] = target: T6, MLL-pM-A7 peptide on HLA-B*07:02; assay: activation reporter or marker
[7] = target: T7, MLL-pM-A9 peptide on HLA-B*07:02; assay: activation reporter or marker
[8] = target: T8, MLL-pM-A4 peptide on HLA-B*07:02; assay: activation reporter or marker
[9] = target: T9, MLL-pM-A1 peptide on HLA-B*07:02; assay: activation reporter or marker
[10] = target: T10, MLL (KMT2A), MLL-pP peptide on …; assay: multimer staining
[11] = target: T10, MLL (KMT2A), MLL-pP peptide on …; assay: activation reporter or marker

Binder	binding result [1]	binding result [2]	binding result [3]	binding result [4]	binding result [5]	binding result [6]	binding result [7]	binding result [8]	binding result [9]	binding result [10]	binding result [11]
B1	no recognition	no recognition	no recognition	no recognition	no recognition	no recognition	no recognition	no recognition	no recognition	recognises	
B2	recognises	recognises	no recognition	no recognition	no recognition	no recognition	no recognition	no recognition	no recognition		no recognition
